Results taken from patent US8012471B2, “Screening and treatment methods using IGS5 enzymes of the metalloprotease family” (Abbott Healthcare Products B.V., priority 1999, dated 2011).

Key:
Format in all cases: biochemical
[1] = molecular target: T1, IGS5 polypeptide (His6-tagged IGS5 ectodomain) (Homo sapiens, UniProt Q495T6, V306M); assay: Hydrolysis of vasoactive peptides and PACAP(1-27) by IGS5 polypeptide (HPLC); conditions: 100 μl assay volume; 100 ng IGS5 polypeptide; 0.5 μM substrate; 2 h, 37° C.
T1 construct: made in house; host or cells: Spodoptera frugiperda Sf9 (baculovirus IGBV73)
T1 sequence (Q495T6 with tags, fused parts or gaps V306M): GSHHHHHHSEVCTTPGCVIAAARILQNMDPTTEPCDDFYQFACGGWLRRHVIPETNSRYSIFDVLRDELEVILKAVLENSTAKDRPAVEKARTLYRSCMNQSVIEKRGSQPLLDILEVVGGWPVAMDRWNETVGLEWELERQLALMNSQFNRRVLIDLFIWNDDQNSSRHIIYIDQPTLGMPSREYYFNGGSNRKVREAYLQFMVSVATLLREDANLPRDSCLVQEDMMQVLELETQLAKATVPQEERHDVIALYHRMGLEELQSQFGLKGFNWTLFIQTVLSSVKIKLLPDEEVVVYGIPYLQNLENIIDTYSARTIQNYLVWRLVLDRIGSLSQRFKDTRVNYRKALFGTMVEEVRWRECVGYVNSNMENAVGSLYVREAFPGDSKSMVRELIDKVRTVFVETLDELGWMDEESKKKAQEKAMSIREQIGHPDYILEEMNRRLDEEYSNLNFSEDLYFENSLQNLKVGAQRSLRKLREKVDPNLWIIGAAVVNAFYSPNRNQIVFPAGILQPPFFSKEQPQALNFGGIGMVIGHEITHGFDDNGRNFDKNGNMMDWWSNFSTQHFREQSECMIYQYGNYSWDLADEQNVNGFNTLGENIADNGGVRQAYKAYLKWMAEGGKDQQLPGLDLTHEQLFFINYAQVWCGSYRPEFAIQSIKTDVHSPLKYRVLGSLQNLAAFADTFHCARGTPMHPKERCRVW
Protocol: The enzymatic activity of IGS5 polypeptides of the invention was tested with regard to the metabolism of biologically active peptides. In particular it was tested whether these IGS5 polypeptides may act on a variety of vasoactive peptides known in the state of the art e.g. such like atrial natriuretic peptide (ANP), bradykinin, big endothelin (Big ET-1), endothelin (ET-1), substance P and angiotensin-1. In the context of the present invention in particular it was tested whether the IGS5 ectodomain, which is a novel human metalloprotease, hydrolyzes said vasoactive peptides. For comparison the assay was also performed for a known member of the metalloprotease family which was described earlier as soluble secreted endopeptidase (SEP) by Ikeda, Emoto et al. (J. Biol. Chem., Vol. 274 (1999): pp. 32469-32477). Furthermore, it was tested whether the activity of IGS5 to convert a Big-ET-1 analogue (the so-called 17 aa Big-ET) may be inhibited by reference compounds that are used to determine the inhibition properties with regard to enzymes having ECE and/or NEP-characteristics. […] It was then checked whether the activity of IGS5 to convert PACAP(1-27) may be inhibited by a compound known to be a IGS5 inhibitor. The compound used to test the inhibition of IGS5-activity on PACAP(1-27) was the active metabolite of (3S,2′R)-3-{1-[2′-(ethoxycarbonyl)-4′-phenylbutyl]-cyclopentane-1-carbonylamino}-2,3,4,5-tetrahydro-2-oxo-1H-1-benzazepine-1-acetic acid (compound Ia-2 from WO 02/094176).
The enzymatic reaction was subsequently terminated by heating to 95° C. for 5 min. After centrifugation (Heraeus Biofuge B, 3 min) the supernatant was subjected to HPLC
In order to separate the remaining substrate from the cleavage products reversed phase HPLC technique was used with a CC 125/4 Nucleosil 300/5 C18 RP column and a CC 8/4 Nucleosil 100/5 C18 precolumn (commercially available from Macherey-Nagel, Duren, Germany). Thus, 60 μl of the reaction samples obtained in Example 7B were injected into the HPLC, and the column was eluted at a flow rate of 1 ml/min by applying the following gradient and solutions: […]
Peptides were detected by absorbance at 214 nm (UV spectroscopy) and/or by fluorescence with an excitation wavelength of 328 nm and an emission wavelength of 393 nm.
% Hydrolysis: For detection of substrate cleavage, the percentage of hydrolysis was calculated by directly comparing the substance peak areas in HPLC traces of the sample without addition of any IGS5 enzyme activity (blank) and of the samples with addition of IGS5 enzyme (sample). % hydrolysis was calculated on basis of the respective peak areas. % hydrolysis=100*(1−(Asample/Ablank))

[2] = molecular target: NEP (Homo sapiens, UniProt P08473); assay: PACAP(1-27) cleavage by recombinantly produced NEP; conditions: assay conditions as for IGS5
Protocol: (§1) A quantity of 80 μl of the assay buffer, 10 μl of enzyme working solution (5 μg/ml) and 10 μl of substrate stock solution (PACAP(1-27)) were mixed in an Eppendorf vial and incubated for 120 min. at 37° C. The enzymatic reaction was subsequently terminated by heating to 95° C. for 5 min. After centrifugation (Heraeus Biofuge B, 3 min) the supernatant was subjected to HPLC
(§2) In addition, it was also analysed whether PACAP(1-27) is cleaved by other recombinantly produced metalloproteases of the M13 family, such as NEP, ECE-1 and XCE/DINE. […] The data summarized herein indicate that PACAP(1-27) might be the physiologically relevant substrate of hSEP.

[3] = molecular target: T2, ECE-1 (Homo sapiens, UniProt P42892); assay: PACAP(1-27) cleavage by recombinantly produced ECE-1; conditions: assay conditions as for IGS5
T2 sequence (P42892 1-770): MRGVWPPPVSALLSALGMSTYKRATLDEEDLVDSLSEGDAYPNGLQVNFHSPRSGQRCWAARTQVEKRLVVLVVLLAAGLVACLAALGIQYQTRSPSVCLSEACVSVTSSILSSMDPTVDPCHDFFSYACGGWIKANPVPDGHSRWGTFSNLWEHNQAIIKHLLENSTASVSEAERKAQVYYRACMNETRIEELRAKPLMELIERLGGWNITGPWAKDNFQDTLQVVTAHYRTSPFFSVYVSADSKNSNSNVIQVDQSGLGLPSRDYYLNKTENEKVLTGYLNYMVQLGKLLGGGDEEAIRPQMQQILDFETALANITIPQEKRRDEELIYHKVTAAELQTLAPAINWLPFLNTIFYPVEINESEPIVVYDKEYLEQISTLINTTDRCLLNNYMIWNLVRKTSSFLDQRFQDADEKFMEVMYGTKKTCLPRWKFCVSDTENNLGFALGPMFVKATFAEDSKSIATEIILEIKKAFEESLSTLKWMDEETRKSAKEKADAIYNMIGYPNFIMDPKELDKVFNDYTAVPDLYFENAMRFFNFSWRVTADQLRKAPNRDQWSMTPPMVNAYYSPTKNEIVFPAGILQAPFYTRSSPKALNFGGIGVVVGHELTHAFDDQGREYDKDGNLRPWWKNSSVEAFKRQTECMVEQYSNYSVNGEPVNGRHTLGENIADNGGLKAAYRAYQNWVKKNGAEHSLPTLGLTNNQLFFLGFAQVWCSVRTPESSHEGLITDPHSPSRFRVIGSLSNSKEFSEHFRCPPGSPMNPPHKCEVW
Protocol: as §1, §2

[4] = molecular target: T3, XCE/DINE (Homo sapiens, UniProt O95672); assay: PACAP(1-27) cleavage by recombinantly produced XCE/DINE; conditions: assay conditions as for IGS5
T3 sequence (O95672 1-775): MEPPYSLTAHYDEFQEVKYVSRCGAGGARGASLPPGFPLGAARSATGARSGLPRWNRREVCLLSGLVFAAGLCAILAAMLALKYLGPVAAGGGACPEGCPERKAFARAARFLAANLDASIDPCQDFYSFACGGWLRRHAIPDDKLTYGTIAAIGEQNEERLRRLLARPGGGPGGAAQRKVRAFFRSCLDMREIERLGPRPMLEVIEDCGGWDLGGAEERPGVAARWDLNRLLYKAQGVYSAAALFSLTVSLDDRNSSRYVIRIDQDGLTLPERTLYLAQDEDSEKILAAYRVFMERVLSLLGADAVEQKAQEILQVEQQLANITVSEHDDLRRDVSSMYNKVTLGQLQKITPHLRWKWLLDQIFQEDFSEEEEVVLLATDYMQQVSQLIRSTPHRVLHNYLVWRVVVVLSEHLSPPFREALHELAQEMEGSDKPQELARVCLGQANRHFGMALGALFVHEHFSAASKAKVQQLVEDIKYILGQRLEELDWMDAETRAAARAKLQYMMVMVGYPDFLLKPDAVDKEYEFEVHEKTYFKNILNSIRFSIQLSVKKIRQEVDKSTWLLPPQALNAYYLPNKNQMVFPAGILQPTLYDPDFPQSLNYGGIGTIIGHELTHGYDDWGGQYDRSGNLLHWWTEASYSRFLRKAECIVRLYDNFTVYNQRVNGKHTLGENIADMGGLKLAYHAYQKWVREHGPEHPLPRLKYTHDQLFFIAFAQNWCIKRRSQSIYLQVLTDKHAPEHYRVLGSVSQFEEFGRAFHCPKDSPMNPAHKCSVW
Protocol: as §1, §2

Sequence of NEP (P08473 whole entry): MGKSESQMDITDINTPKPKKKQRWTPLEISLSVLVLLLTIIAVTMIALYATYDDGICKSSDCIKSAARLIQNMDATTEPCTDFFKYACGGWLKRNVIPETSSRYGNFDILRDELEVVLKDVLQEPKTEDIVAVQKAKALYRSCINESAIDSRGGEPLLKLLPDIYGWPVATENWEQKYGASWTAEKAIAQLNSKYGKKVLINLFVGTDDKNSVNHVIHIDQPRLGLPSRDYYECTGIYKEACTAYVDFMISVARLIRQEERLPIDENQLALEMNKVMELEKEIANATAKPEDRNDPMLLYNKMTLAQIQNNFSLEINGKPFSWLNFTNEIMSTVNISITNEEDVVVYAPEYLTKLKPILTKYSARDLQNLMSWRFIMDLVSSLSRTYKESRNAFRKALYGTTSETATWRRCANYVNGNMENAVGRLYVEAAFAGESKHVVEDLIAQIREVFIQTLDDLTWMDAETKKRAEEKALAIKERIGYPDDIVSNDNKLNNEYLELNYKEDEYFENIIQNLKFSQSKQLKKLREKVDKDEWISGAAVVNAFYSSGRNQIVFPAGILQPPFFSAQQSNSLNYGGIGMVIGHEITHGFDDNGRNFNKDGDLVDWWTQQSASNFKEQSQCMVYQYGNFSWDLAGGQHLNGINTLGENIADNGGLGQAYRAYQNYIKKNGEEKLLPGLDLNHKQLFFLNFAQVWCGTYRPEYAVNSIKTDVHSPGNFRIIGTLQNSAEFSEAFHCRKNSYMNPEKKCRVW

“His-Ser-Asp-Gly-Ile-Phe-Thr-Asp-Ser-Tyr-Ser-Arg-Tyr-Arg-Lys-Gln-Met-Ala-Val-Lys-Lys-Tyr-Leu-Ala-Ala-Val-Leu [PACAP (1-27)]” was tested, and the “% Hydrolysis by IGS5 Polypeptide” value [1] was 69%, the “Cleavage of PACAP(1-27) by NEP” value [2] was “None of the aforementioned enzymes was able to cleave” and the “Cleavage of PACAP(1-27) by ECE-1” value [3] was “None of the aforementioned enzymes was able to cleave”. The “Cleavage of PACAP(1-27) by XCE/DINE” value [4] was “None of the aforementioned enzymes was able to cleave”.
